Read-outs that look alike come from different tables or passages of the source.
Legend:
[1] = target: T1, Human-NKP30-His (human, UniProt O14931 19-135, limits assumed); assay: ELISA, plate coated with Human-NKP30-His, detection with HRP goat anti-human IgG-Fc
T1 construct: Coated on the ELISA plate at 0.5 µg/mL; also called NKP30 protein; not shown: His tag
T1 sequence (looked up): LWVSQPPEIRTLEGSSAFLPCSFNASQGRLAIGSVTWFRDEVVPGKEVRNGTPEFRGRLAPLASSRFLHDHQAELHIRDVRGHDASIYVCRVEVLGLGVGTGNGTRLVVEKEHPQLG
Procedure: (§1) Human-NKP30-His was diluted to 0.5 μg/mL with PBS buffer at pH 7.4, added into the 96-well ELISA plate at 100 μL per well, coated overnight at 4° C., and blocked with 1% BSA blocking solution for 1 hour. The plate was washed 3 times with PBST, and the constructed antibodies were diluted to 10 μg/mL with 0.5% BSA sample diluent as the starting concentration, and then diluted by 3-fold gradient (11 gradients in total). A negative control (blank well and IgG1 isotype control) and a positive control were set, and the positive control was a NKP30 humanized antibody (sequence shown in SEQ ID No.32), and incubated at 37° C. for 1 h at 100 μL per well. […] The absorbance value of each well in the 96-well plate was determined by selecting the wavelength of 450 nm and the reference wavelength of 570 nm on a multifunctional enzyme marker, and the absorbance value (OD)=OD₄₅₀ₙₘ−OD₅₇₀ₙₘ. The logarithm of the concentration of the constructed antibodies were taken as the abscissa, and the measured absorbance value of each well was taken as the ordinate, and the Sigmoidaldose-response (Variable Slope) method (GraphPad Prism software, GraphPad Software, San Diego, California) was selected for nonlinear regression to obtain the binding curve of the target antibody to NKP30 protein.

[2] = target: T1, Human-NKP30-His; assay: as above; remark: listed apart in the source
Procedure: as §1

B1: NKP30 humanized antibody (SEQ ID No.32) (antibody, human IgG4 S228P, V domains shown)
VH: EVQLVESGGGLVQPGGSLRLSCAASGITFSRSVMGWFRQAPGKLRELVAGITSDDNTDYADSVKGRFTISRDNSKNTLYLQMNSLRAEDTAVYYCNILPDSRLGWGQGTLVTVSS
notes: It was detected with anti-human IgG-Fc; also called positive control; NKP30 monoclonal antibody
[1]
  EC50 (read off the curve): ~0.03 µg/mL
[2]
  EC50 (read off the curve): ~0.03 µg/mL

From US20240327543A1 (SHENGHE CHINA BIOPHARMACEUTICAL, published 2024)
